We go through two proteins from article PMC11943158.

Where two headings read alike, the source gives them in different places.

The conditions of data set [1]: O-GlcNAc at S355.
The next data set is described as follows: Flag Western blot. Particulars: glycan lost; control: Gli2-WT.
Data set [2] can be described thus: cycloheximide chase, Flag Western blot. Particulars: glycan lost. A general note: A western blot detects proteins with antibodies after separation by electrophoresis.

B1: Gli2: S355A (protein)
parent chain: METSAPAPALEKKEAKSGLLEDSSFPDPGKKACPLAVAAAVAAHGVPQQLLPAFHAPLPIDMRHQEGRYHYDPHSVHSVHGPPTLSGSPVISDISLIRLSPHPAGPGESPFSAHHPYVNPHMEHYLRSVHSSPTLSMISAARGLSPADVAHEHLKERGLFSLAAPGTNPSDYYHQMTLMASHPTPYGDLLMQSGGAASAPHLHDYLNPVDASRFSSPRVTPRLSRKRALSISPLSDASLDLQRMIRTSPNSLVAYINNSRSSSAASGSYGHLSAGALSPAFTFPHPINPVAYQQILSQQRGLGSAFGHTPPLIQPSPTFLAQQPMTLTSISTMPTQLSSSSSNCLNDANQNKQNSESAVSSTVNPITIHKRSKVKTEAEGLRPASPLGLTQEQLADLKEDLDRDDCKQEAEVVIYETNCHWADCTKEYDTQEQLVHHINNEHIHGEKKEFVCRWQACTREQKPFKAQYMLVVHMRRHTGEKPHKCTFEGCSKAYSRLENLKTHLRSHTGEKPYVCEHEGCNKAFSNASDRAKHQNRTHSNEKPYICKIPGCTKRYTDPSSLRKHVKTVHGPDAHVTKKQRNDVHVRAPLLKENGDNEASAEPGGRGPEESVEASSTSHTVEDCLHIKAIKTESSGLCQSSPGAQSSCSSEPSPLGSAPNNDSGMEMPGTGPGSLGDLTALADTCPGADTSALAAPSTGGLQLRKHMSTVHRFEQLKREKLKSLKDSCSWAGPAPHTRNTKLPPLPVNGSVLENFNNTGGGGPAGLLPSQRLPELTEVTMLSQLQERRDSSTSTMSSAYTVSRRSSGISPYFSSRRSSEASPLGGLRPHNASSADSYDPISTDASRRSSEASQCSGGGPGLLNLTPAQQYNLRAKYAAATGGPPPTPLPGLDRVSLRTRLALLDAPERALPGACPHPLGPRRGSDGPTYSHGHGHGYAGAAPAFPHEGPNSSTRRASDPVRRPDPLILPRVQRFHSTHNMNPGSLPPCADRRGLHVQSHPSVDSNLTRNAYSPRPPSINENVVMEAVAAGVDGPGLECDLGLVEDELVLPDDVVQYIKAHTGGTLDDGIRQGYPTEGTGFPENSKLPSPGLQGHRRLAAADSNMGPSAPGLGGCQLSYSPSSNLNKSNMPVQWNEVSSGTVDALPTQVKPPPFPHSNLAVVQQKPAFGQYPGYNPQSVQSSSGGLDSTQPHLQLRGAPSASRGSYTQQPRQPAAGSQCLGMSAAMSPQASYSQAHPQLSPNIVSGSLNQFSPSCSNMAAKPSHLGLPQQMEVVPNATIMNGHQREHGVPNSSLAAVSQPHPVLSYPQQDSYQQGSNLLSSHQPGFMESQQNAGFGLMQPRPPLEPNTASRHRGVRSGQQQLYARTTGQAMVTSANQETAEAMPKGPAGTMVSLAPQPSQDTGRAQDQNTLYYYGQIHMYEQNGGCPAVQPQPPQPQACSDSIQPEPLPSPGVNQVSSTVDSQLLEPPQIDFDAIMDDGDHSSLFSGALSPTLLHNLSQNSSRLTTPRNSLTLPSIPAGISNMAVGDMSSMLTSLAEESKFLNMMT
Consider B1, for which the degradation_or_half_life entry in data set [1] and in data set [2] (control: Gli2-WT) was “decreases” throughout. For the same protein, the expression_or_secretion result (in data set [1]; in “Flag Western blot”) was “decreases” in each case.

B2: Gli2: OSMI (protein)
parent chain: B1 parent chain
B2: the degradation_or_half_life result in data set [1] is “decreases, PM extended half-life from approximately 6 to 24 h; OSMI eliminated this”. Besides, in data set [2] (control: PM without OSMI), the “degradation_or_half_life, half_life” value was “decreases”.
